Experimental data published in the nanobody polyreactivity screen of Harvey et al. (2022).

assay: yeast display, Sf9 membrane polyspecificity reagent, FACS + sequencing; frameworks hold sequencing errors
In short: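 Using colony PCR, genes from sorted yeast display clones were amplified, then sequenced on MiSeq at 2 × 250 and filtered by CDR length. The clones had been stained with 10% biotinylated, detergent-solubilized Sf9 membrane reagent for 1 hour at 4 °C and sorted by FACS into low and high (top ~1%) gates on anti-HA and streptavidin fluorescence. Polyreactivity labels come from the gate of origin.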

| Sequence | polyreactivity (PSR sort gate) |
| --- | --- |
| QVQLVESGGGLVQAGGSLRLSCAASGSTFPVYAMGWYRQAPGKERELVAAISRSGASTYYAASVKGRFTISRDNAKNTVDLQMNSLKPDDTAVYYCARGYQGRLKYEYWGQGTQVTVSS | low polyreactivity |
| QVQLVESGGGLVQAGGSLRLSCAASGSTFPVYAMGWYRQAPGKERELVASISSGGSTYYADSVKGRFTISRDNAKNTVYLQMNSLKPEDTAVYYCAKDPWVESFVIYDYWGQGTQVTVSS | low polyreactivity |
| QVQLVESGGGLVQAGGSLRLSCAASGSTFPVYAMGWYRQAPGKERELVATISYSGGSTNYADSVKGRFTISRDNAKNTVYLQMNSLKPEDTAVYYCAKRYKRYVYWRSHGDYNYWGQGTQVTVSS | high polyreactivity |
| QVQLVESGGGLVQAGGSLRLSCAASGSTFPVYTLGWYRQAPGKERELVAAISWRGTSTYADSVKGRFTISRDNGKNNVYLQMNRLIPEDTAVYYCAAGDTRGMDYWGQGTQVTVSS | high polyreactivity |
| QVQLVESGGGLVQAGGSLRLSCAASGSTFPVYVMGWYRQAPGKERELVAAITRIGGSTYYADSVKGRFTISRDNAKNTVYLQMNSLKPEDTAVYYCAAGGTARDDSWGQGTQVTVSS | low polyreactivity |
| QVQLVESGGGLVQAGGSLRLSCAASGSTFPWNAMGWYRQAPGKERELDAAIRTGGGRTYYADSVKGRFTISRDNAKNTVYLQMNSLKPEDTAVYYCNAYQSSGRYRNSYGYWGQGTQVTVSS | high polyreactivity |
| QVQLVESGGGLVQAGGSLRLSCAASGSTFPWYAMVWYRQAPGKERELVAAIRWRGGSTYYADSVKGRFTISRDNAKNTVYLQMNSLKPEDTAVYYCAADPTYLRTLRFGSYDYWGQGTQVTVSS | high polyreactivity |
| QVQLVESGGGLVQAGGSLRLSCAASGSTFPYAMGWYTQAPGKEREFVAAITRSGGSTYYADSVKGRFTISRDNAKNTVYLQMNSLKPEDTAVYYATQRCVWGYHYWGQGTQVTVSS | high polyreactivity |
| QVQLVESGGGLVQAGGSLRLSCAASGSTFPYNAMGWYRQAPGKERELVAAITSDDTTNYADSVKGRFTISRDNAKNTVYLQMNSLKPEDTAVYYCAAEYRYPYLRGAGDYWGQGTQVTVSS | low polyreactivity |
| QVQLVESGGGLVQAGGSLRLSCAASGSTFPYNAMGWYRQAPGKERELVAAITSSGRTNYADSVKGRFTISRDNAKNTDYLQMNSLKPEDTAVYYCAAVRWYAHRVDYWGQGTQVTVSS | low polyreactivity |
| QVQLVESGGGLVQAGGSLRLSCAASGSTFPYNTMGWYRQAPGKEREFVAAITGDGGTTYYADSVKGRFTISRDNAKNTVYLQMNSLKPEDTAVYYCAVPYPAEGYGGDYWGQGSQVTVSS | low polyreactivity |
| QVQLVESGGGLVQAGGSLRLSCAASGSTFPYNVMGWYRPAPGKERELVAAISYSGGNTYYADSVKGRFTISRDNAKNTVYLQMNSLKPEDTAVYYCAKARRGGRGSIKYDYWGQGTQVTVSS | high polyreactivity |
| QVQLVESGGGLVQAGGSLRLSCAASGSTFPYPYTMGWYRQAPGKERELVAVISRTGGSTFYADSVKGRFTISRDNAKNTVYLQMNSLKPEDTAVYYCAARYAVGAHYDYWGQGTQVTVSS | high polyreactivity |
| QVQLVESGGGLVQAGGSLRLSCAASGSTFPYYAMGWYRQAPGKEMELVASIRKRGGGTYYADSVKGRFTISRDNAKNTVYLQMNSLKPEDTAVYYCAVRVYQFRYTGYDYWGQGTQVTVSS | high polyreactivity |
| QVQLVESGGGLVQAGGSLRLSCAASGSTFPYYAMGWYRQAPGKEREFVAAISYRGGSTYYADSVKGRFTISRDNAKNTVYLQMNSLKPEDTAVYYCAARSWQDRYANGYNYWGQGTQVTVSS | high polyreactivity |
| QVQLVESGGGLVQAGGSLRLSCAASGSTFPYYAMGWYRQAPGKERELVAAITSGGSTNYADSVKGRFTISRDNAKNTVYLQMNSLKPEDTAVYYCNADTTYLSDYVTFDYWGQGTQVTVSS | low polyreactivity |
| QVQLVESGGGLVQAGGSLRLSCAASGSTFPYYARGWYRQAPGKERELVAAITSGGSTNYADSVKGRFTISRDNAKNTVYLQMNSLKPEDTAVYYCAARLRYTTVIYYYWGQGTQVTVSS | high polyreactivity |
| QVQLVESGGGLVQAGGSLRLSCAASGSTFPYYTMGGYRQAPGKERELVAAISWRGGSTYYADTVKGRFSISRDNAKNTVYLQMNSLKPEDTAVYYCAARYGVFGYDYWGQGTQVTVSS | high polyreactivity |
| QVQLVESGGGLVQAGGSLRLSCAASGSTFQANDMGWYRQAPGKERELVAAISTGGSSTYYADSVKGRFTISRDNAKNTVYLQMNCLKPEDTAVYYCAVDGLGGREGYWGQGTQVTVSS | high polyreactivity |
| QVQLVESGGGLVQAGGSLRLSCAASGSTFQENAMGWYRQAPGKEREFVAAISGSGGSTYYADSVKGRFTISRDNAKNTVYLQMNSLKPEDTAVYYCAARHYFRSRRRYDYWGQGTQVTVSS | low polyreactivity |
